Tested on: MS2 coat protein
Test: apparent KD of MS2 coat protein; designed switch direction (-1 OFF switch, 1 ON switch): -1; higher = weaker reporter binding
Outline: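 RNA switches sharing common flanks were transcribed by stalled E. coli RNA polymerase on Illumina chips. A doubling series of SNAP-549-labelled MS2 coat protein, from 0.7 or 1.5 nM to 3 µM, was applied in Tris-HCl pH 7.5 buffer with KCl, MgCl2, BSA, DTT, tRNA and Tween-20. Each step lasted 0.8–1.5 h at the bottom of the series and 10–20 min at the top. Normalised cluster fluorescence was curve-fitted, giving apparent KD as the per-design median over clusters.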

[1] = input ligand: microRNA oligo, concentration not stated
[2] = Eterna round: R95, input ligand: FMN 200 uM
[3] = Eterna round: R95, input ligand: microRNA oligo, concentration not stated
[4] = Eterna round: R95, input ligand: none

Sequence | apparent KD of MS2 coat protein (input ligand: FMN 200 uM) | apparent KD of MS2 coat protein (input ligand: none) | apparent KD of MS2 coat protein [1] | apparent KD of MS2 coat protein [2] | apparent KD of MS2 coat protein [3] | apparent KD of MS2 coat protein [4]
GUCAUCACACAUGGGAUCAACAUGAGGAUCACCCAUGUUGCCAAGUUGUUUGCACGUCUUAUCAUACGUUUUUCGAU [Mod-Jxi] (Eterna round: R97, puzzle: Sensor, turn-off variant 1) | 22.2 nM | 22.7 nM | – | – | – | –
ACAUGAGGAUCACCCAUGUGACCACGAUGGCUGAUGUAGAGAUAGGAUAUGUGUGAAUAUCUAUCACAGAAGGAUCUUGACUGG [Deportation 53 - Jieux - Exclusion NG 3] (Eterna round: R96, puzzle: Exclusion NG 3) | 25.2 nM | 28.5 nM | 22.4 nM | – | – | –
UAAGUUCAGUAGGAUAUUCAGCAGCUGCUGCUAGGAGAAGGGCUGACAUGAGGAUCACCCAUGUGAGUGUCCGU [Eternabot (L2) Solution 55] (Eterna round: R97, puzzle: Exclusion 6) | 92.2 nM | 32.1 nM | – | – | – | –
UUUUGACAAGCGAGAUCCUACAUGAGGAUCACCCAUGUAGACCAUGGUUUCCAUGGUCUUUUUGCUCGUCUUGUGUG [jl TITIN mod 5] (Eterna round: R97, puzzle: Sensor, turn-off variant 1) | 23.2 nM | 23.4 nM | – | – | – | –
AAUUAAUGAGGAUAUACAGUGUAAAACAUGAGGAUCACCCAUGUUCUUCAAUUAGUAUUUGUAGAAGGCAUAGGUA [JR_Ex5_Sub093] (Eterna round: R97, puzzle: Exclusion 5) | 32 nM | 61.4 nM | – | – | – | –
CAACGAUGAGGAUAUACAUGAGGAUCACCCAUGUGGUCCAGCAGCCAUUACGGCGAAGGUAGAAGGCGUUAUUA [Eternabot (L2) Solution 54] (Eterna round: R97, puzzle: Exclusion 3) | 349 nM | 386 nM | – | – | – | –
UUAGGCUGAAGAUCAAUUAAUUAACAUGAGGAUCACCCAUGUAAGGAUAUCAGCUCGAUUAGAGCUGAGAAGGUACAUGCAGCC [ExNG3/18-A1] (Eterna round: R96, puzzle: Exclusion NG 3) | – | – | 102 nM | – | – | –
GUCAGCUCGUGAGGAUAUACAUGCGUGCUUCGGCACGAAUUUAAGAUCACAUGAGGAUCACCCAUGUAGAAGGCACGAGCUGAC [ENG2/3-A1] (Eterna round: R96, puzzle: Exclusion NG 2) | 137 nM | 591 nM | 472 nM | – | – | –
GCCAGAGCAGGAUAUUCAAAACCUCACAUGAGGAUCACCCAUGUGGCCGAAAGGCCGGGAGGAGAAGGGCUCUGGC [Fiskers Ex 5 - 1] (puzzle: Exclusion 5) | – | – | – | 49.8 nM | 13.3 nM | 15.8 nM
AGCGAAUGAGGAUAUUAUCUCACCUACAUGAGGAUCACCCAUGUGGUCGCACCUGGCGAGUGAGAAGGCAUUCGGA [Eternabot (Original) Solution 41] (Eterna round: R97, puzzle: Exclusion 5) | 112 nM | 49.8 nM | – | – | – | –
GUUAAGGUAGGAUAUACGAUAAUAUAGGGUAGAUAUAUAACACAUGAGGAUCACCCAUGUAGAAGGACCAAGUG [Mat - Exclusion 2 - Mod of my Tesla design - D60] (puzzle: Exclusion 2) | – | – | – | – | 43.4 nM | –
GGCCAGAUAGGAUAUACUUGAGGAUCACCCAAGUAAAGGAGCAAGCUCCGAUCCUUUGGUAGAAGGAUCGGCCA [Diqulees] (Eterna round: R97, puzzle: Exclusion 3) | 92.7 nM | 52.8 nM | – | – | – | –
UGCCGGGCGUGAUCGGAUGACAUGAGGAUCACCCAUGUGCCAGCACAUAAUACCGCUCGCGGUUUUUUGCUCGUCAU [Eternabot (Original) Solution 12] (Eterna round: R97, puzzle: Sensor, turn-off variant 1) | 221 nM | 250 nM | – | – | – | –
ACCUCACAUGAGGAUCACCCAUGUCAGGAUAUGUACCUAGCCAAAACAAAGGCCAGAAGCAGAAGGGACUGCGG [Ralerezara] (puzzle: Exclusion 1) | – | – | – | 24.1 nM | 53.4 nM | 44.6 nM
CAAUAACAAGCGAGAUCCUACAUGAGGAUCACCCAUGUGCUCGUCUUAUAAGGUACUGUGACGAUAGUCACGGUACC [Mat - Sensor, turn-off var - Eli Mod - D97] (Eterna round: R97, puzzle: Sensor, turn-off variant 1) | 18.9 nM | 19.6 nM | – | – | – | –
UAUUAGUAAGGAUAUCCCACGUAGGACUUCGGUCCUACGUGGGAGAAGGUACAUGAGGAUCACCCAUGUCUAUU [Mod of Fisker 13 - Jieux - Exclusion 4] (Eterna round: R97, puzzle: Exclusion 4) | 16.6 nM | 14.9 nM | – | – | – | –
AAUUUAUGAGGAUAUACAGUGUAAAACAUGAGGAUCACCCAUGUUCUUCAAUUAGUAUUUGUAGAAGGCAUAUGUA [JR_Ex5_Sub095] (Eterna round: R97, puzzle: Exclusion 5) | 17.2 nM | 17.1 nM | – | – | – | –

Sequence | apparent KD of MS2 coat protein (input ligand: FMN 200 uM) | apparent KD of MS2 coat protein (input ligand: none) | apparent KD of MS2 coat protein [1] | apparent KD of MS2 coat protein [2] | apparent KD of MS2 coat protein [3] | apparent KD of MS2 coat protein [4]
GCACGGUAAGUGAGGAUAUACCUCUGGAUACAGAGGUAGAAGGCACAUGAGGAUCACCCAUGUCUAAGCCGUGC [Fiskers BMX 4 - 83] (puzzle: Brourd's mod of Exclusion 4) | – | – | – | – | 14.7 nM | –
ACAAACACGGCAGGAUAUCCUCGCAUAUGAUAGGUUGUUCUCCACAUGAGGAUCACCCAUGUCGAGGAGAAGGGCCAUCAUUCU [Tibema] (Eterna round: R96, puzzle: Exclusion NG 2) | 16.2 nM | 18.9 nM | 12.7 nM | – | – | –
UUUUAACAUGAGGAUCACCCAUGUGAGGAUAUGGUUUUUUUUUUUUUUUUUUUUUUUUCCAGAAGGCACAUUUU [My solution] (puzzle: Exclusion 1) | – | – | – | 25.4 nM | 13.7 nM | 119 nM
CCCACGUGAGGAUAUUCAACGGUAAGCGAUCUAUGCACCUUGAAGAAGGCACAUGAGGAUCACCCAUGUCCUAA [Eternabot (L1) Solution 44] (Eterna round: R97, puzzle: Exclusion 4) | 44.8 nM | 22.2 nM | – | – | – | –
GGGAGGAGAGUGAGGAUAUUCGAGGGAGGGAGGGUGAAGAAGGCACAUGAGGAUCACCCAUGUGGUGGGAGGUU [RHig 1] (Eterna round: R97, puzzle: Brourd's mod of Exclusion 4) | 23.9 nM | 38.3 nM | – | – | – | –
CGGUGCUGAGGAUAUACAUGAGGAUCACCCAUGUGUUCCAGCUAGCGUACUGGCAGGUGUAGAAGGCGGUACUG [JL-ex3-3.41 Brourd mod] (puzzle: Exclusion 3) | – | – | – | 68.7 nM | 18.7 nM | 20.1 nM
ACGAUGACCGAAAAGUGUCAACUGACAUGAGGAUCACCCAUGUAGGAUAUGGCUACGAAAAGUAGUCAGAAGGACAUGUCAUCA [Omei Exc(NG) 3 Av6] (Eterna round: R96, puzzle: Exclusion NG 3) | 17.6 nM | 15.4 nM | 10.5 nM | – | – | –
GUUAAACAUGAGGAUCACCCAUGUAAGGAUAUGCUGCGGUCGCGAUGAAGUGACUGCAGCAGAAGGUACAAAUG [Mat - Mod of JL D59] (puzzle: Exclusion 1) | – | – | – | 89.8 nM | 92 nM | 102 nM
CACCGUUACAGAGGAUAUGGUACAUGAGGAUCACCCAUGUAAUAAAUGAGAAUUUCGGAUGUAUUCCAGAAGGCUGUAAUCGGC [Ostricism 65 - Jieux - Exclusion NG 2] (Eterna round: R96, puzzle: Exclusion NG 2) | 74.9 nM | 53.5 nM | 34.1 nM | – | – | –
UUAAAUCAUGUAGGAUAUGCGUGGCGAAGCUAUGCAGAAGGACAUGAGGAUCACCCAUGUCUUUCCGUCUGCGUACAGAUGGAA [JL Eng1 1.08 mod 2] (Eterna round: R96, puzzle: Exclusion NG 1) | 259 nM | 24.8 nM | 19.8 nM | – | – | –
AAUAACAUGUUGAUCAAAUACAUGAGGAUCACCCAUGUAUGCUUUUUGUUCGAUAAGAUCAACUAAUAAUAAUAAUA [StovNew/1-C] (Eterna round: R97, puzzle: Sensor, turn-off variant 1) | 12.2 nM | 12.6 nM | – | – | – | –
UCACGGGACUGAGGAUAUACAUGAACUAUUUUUGUAGAAGGCAGAAUGUUAGAUUAUACACUAAACAUGAGGAUCACCCAUGUU [JR_ExcNG1_Sub024] (Eterna round: R96, puzzle: Exclusion NG 1) | – | – | 15.1 nM | – | – | –
GAUAGAGAGCAGGAUAUCUUGGGUAAGUGUUGUAGAGAAGGGCUCACAUGAGGAUCACCCAUGUGGUCCAAGAU [JL Dibiri mod 07] (puzzle: Exclusion 6) | – | – | – | 35.2 nM | 16.9 nM | 17.2 nM
GAUGUACAUGAGGAUCACCCAUGUCAGGAUAUUAGGCGCCCUCAUAGCAGGGCCAUGAUGAGAAGGGACAGUAC [Eternabot (L2) Solution 33] (Eterna round: R97, puzzle: Exclusion 1) | 67.6 nM | 66.4 nM | – | – | – | –
UUAGAUUAUUGAGGAUAUGGAUAUUUUUAUUAACCAGAAGGCAAACUCAACAUGAGGAUCACCCAUGUAUAAAGGGUAUUAGUU [JR_ExcNG1_Sub098] (Eterna round: R96, puzzle: Exclusion NG 1) | – | – | 71.2 nM | – | – | –
GCGGAGUGAGGAUAUAGAACUUAAGGUACCAAUUAGGUACCCUAGAAGGCACAUGAGGAUCACCCAUGUACCGC [Eli x4 4.01] (Eterna round: R97, puzzle: Exclusion 4) | 26.5 nM | 28.6 nM | – | – | – | –

Reference: the supplement of paper PMC9170038
